Results: patent US12338277

Key:
Experiment in all cases: cell-based or functional assay
[1] = target: HIV-1 Env of pseudovirus Ce704809221_1B3 (HIV-1)
[2] = target: HIV-1 Env of pseudovirus 3415.v1.c1 (HIV-1)
[3] = target: HIV-1 Env of pseudovirus C4118.c09 (HIV-1)
[4] = target: HIV-1 envelope of pseudovirus ZM109F.PB4 (HIV-1)
[5] = target: HIV-1 envelope of pseudovirus 7030102001E5(Rev-) (HIV-1)
[6] = target: HIV-1 Env of pseudovirus REJO4541.67 (HIV-1)
[7] = target: HIV-1 envelope of pseudovirus SC422661.8 (HIV-1)
[8] = target: HIV-1 envelope of pseudovirus 6244_13_85_4576 (HIV-1)
[9] = target: HIV-1 Env of pseudovirus 9004SS_A3_4 (HIV-1)
[10] = target: HIV-1 envelope of pseudovirus RHPA4259.7 (HIV-1)
[11] = target: HIV-1 envelope of pseudovirus Q451.e2 (HIV-1)
[12] = target: HIV-1 envelope of pseudovirus C2101.c01 (HIV-1)
[13] = target: HIV-1 envelope spike of pseudovirus BaL.26 (HIV-1)
[14] = target: HIV-1 Env of pseudovirus CNE58 (HIV-1)
[15] = target: HIV-1 envelope of pseudovirus ZM249M.PL1 (HIV-1)
[16] = target: HIV-1 envelope of pseudovirus 6041.v3.c23 (HIV-1)
[17] = target: HIV-1 envelope of pseudovirus 9004SS_A3_4 (HIV-1)
[18] = target: HIV-1 Env of pseudovirus 6041.v3.c23 (HIV-1)
[19] = target: HIV-1 Env of pseudovirus CNE20 (HIV-1)
[20] = target: HIV-1 Env of pseudovirus 249M B10 (HIV-1)
[21] = target: HIV-1 Env of pseudovirus 0260.v5.c36 (HIV-1)
[22] = target: HIV-1 envelope spike of pseudovirus SS1196.1 (HIV-1)
[23] = target: HIV-1 Env of pseudovirus HIV-0013095-2.11 (HIV-1)
[24] = target: HIV-1 Env of pseudovirus HIV-16845-2.22 (HIV-1)
[25] = target: HIV-1 Env of pseudovirus 6535.3 (HIV-1)
[26] = target: HIV-1 envelope of pseudovirus C1080.c03 (HIV-1)
[27] = target: HIV-1 Env of pseudovirus Ce1172_H1 (HIV-1)
[28] = target: HIV-1 envelope of pseudovirus HIV-0013095-2.11 (HIV-1)
[29] = target: HIV-1 Env of pseudovirus CAP210.2.00.E8 (HIV-1)
[30] = target: HIV-1 envelope of pseudovirus ZM197M.PB7 (HIV-1)
[31] = target: HIV-1 envelope of pseudovirus BJOX028000.10.3 (HIV-1)
[32] = target: HIV-1 Env of pseudovirus Q769.d22 (HIV-1)
[33] = target: HIV-1 envelope of pseudovirus BJOX015000.11.5 (HIV-1)
[34] = target: HIV-1 envelope of pseudovirus 1054_07_TC4_1499 (HIV-1)
[35] = target: HIV-1 Env of pseudovirus CNE8 (HIV-1)
[36] = target: HIV-1 Env of pseudovirus BJOX010000.06.2 (HIV-1)
[37] = target: HIV-1 Env of pseudovirus PVO.4 (HIV-1)
[38] = target: HIV-1 envelope of pseudovirus A07412M1.vrc12 (HIV-1)
[39] = target: HIV-1 envelope of pseudovirus BJOX010000.06.2 (HIV-1)
[40] = target: HIV-1 envelope spike of pseudovirus QH0692.42 (HIV-1)
[41] = target: HIV-1 Env of pseudovirus C3347.c11 (HIV-1)
[42] = target: HIV-1 envelope of pseudovirus Ce703010054_2A2 (HIV-1)
[43] = target: HIV-1 envelope of pseudovirus 263-8 (HIV-1)
[44] = target: HIV-1 envelope of pseudovirus X1193_c1 (HIV-1)
[45] = target: HIV-1 Env of pseudovirus T251-18 (HIV-1)
[46] = target: HIV-1 envelope of pseudovirus 191821_E6_1 (HIV-1)
[47] = target: HIV-1 envelope of pseudovirus T257-31 (HIV-1)
[48] = target: HIV-1 envelope of pseudovirus CNE8 (HIV-1)
[49] = target: HIV-1 envelope of pseudovirus YU-2 (HIV-1)
[50] = target: HIV-1 envelope of pseudovirus 231966.c02 (HIV-1)

Chain of 10-996 (antibody) (VH): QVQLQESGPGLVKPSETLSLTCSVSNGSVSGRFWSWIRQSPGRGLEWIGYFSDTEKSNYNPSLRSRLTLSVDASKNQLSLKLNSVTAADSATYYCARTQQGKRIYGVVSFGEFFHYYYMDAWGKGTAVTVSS
Chain of 10-996 (antibody) (VL): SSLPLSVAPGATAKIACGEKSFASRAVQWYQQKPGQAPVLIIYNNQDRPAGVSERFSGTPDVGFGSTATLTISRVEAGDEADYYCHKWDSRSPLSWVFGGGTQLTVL

**Q.** For 10-996 (antibody), which IC80 (TZM-bl neutralization) [1] is on record?
**A.** 1.21 µg/mL

**Q.** What about the IC80 (TZM-bl neutralization) [2] of the same substance?
**A.** > 50 µg/mL

**Q.** And the IC80 (TZM-bl neutralization) [3]?
**A.** > 50 µg/mL

**Q.** What about the IC50 (TZM-bl neutralization) [4] of the same substance?
**A.** > 50 µg/mL

**Q.** And the IC50 (TZM-bl neutralization) [5]?
**A.** 0.013 µg/mL

**Q.** And the IC80 (TZM-bl neutralization) [6]?
**A.** > 50 µg/mL

**Q.** What about the IC50 (TZM-bl neutralization) [7] of the same substance?
**A.** 0.173 µg/mL

**Q.** What about the IC50 (TZM-bl neutralization) [8] of the same substance?
**A.** 0.353 µg/mL

**Q.** What about the IC80 (TZM-bl neutralization) [9] of the same substance?
**A.** 0.05 µg/mL

**Q.** And the IC50 (TZM-bl neutralization) [10]?
**A.** 0.034 µg/mL

**Q.** And the IC50 (TZM-bl neutralization) [11]?
**A.** > 50 µg/mL

**Q.** And the IC50 (TZM-bl neutralization) [12]?
**A.** > 50 µg/mL

**Q.** What about the IC50 (TZM-bl neutralization assay) [13] of the same substance?
**A.** 0.045 µg/mL

**Q.** What about the IC80 (TZM-bl neutralization assay) [13] of the same substance?
**A.** 0.228 µg/mL

**Q.** What about the IC80 (TZM-bl neutralization) [14] of the same substance?
**A.** 2.22 µg/mL

**Q.** What about the IC50 (TZM-bl neutralization) [15] of the same substance?
**A.** > 50 µg/mL

**Q.** And the IC50 (TZM-bl neutralization) [16]?
**A.** > 50 µg/mL

**Q.** What about the IC50 (TZM-bl neutralization) [17] of the same substance?
**A.** 0.012 µg/mL

**Q.** What about the IC80 (TZM-bl neutralization) [18] of the same substance?
**A.** > 50 µg/mL

**Q.** What about the IC80 (TZM-bl neutralization) [19] of the same substance?
**A.** < 0.001 µg/mL

**Q.** What about the IC80 (TZM-bl neutralization) [20] of the same substance?
**A.** > 50 µg/mL

**Q.** What about the IC80 (TZM-bl neutralization) [21] of the same substance?
**A.** 0.436 µg/mL

**Q.** What about the IC50 (TZM-bl neutralization assay) [22] of the same substance?
**A.** 0.007 µg/mL

**Q.** What about the IC80 (TZM-bl neutralization assay) [22] of the same substance?
**A.** 0.04 µg/mL

**Q.** What about the IC80 (TZM-bl neutralization) [23] of the same substance?
**A.** > 50 µg/mL

**Q.** And the IC80 (TZM-bl neutralization) [24]?
**A.** 9.93 µg/mL

**Q.** And the IC80 (TZM-bl neutralization) [25]?
**A.** 0.046 µg/mL

**Q.** And the IC50 (TZM-bl neutralization) [26]?
**A.** > 50 µg/mL

**Q.** What about the IC80 (TZM-bl neutralization) [27] of the same substance?
**A.** 0.173 µg/mL

**Q.** What about the IC50 (TZM-bl neutralization) [28] of the same substance?
**A.** 31.5 µg/mL

**Q.** And the IC80 (TZM-bl neutralization) [29]?
**A.** > 50 µg/mL

**Q.** What about the IC50 (TZM-bl neutralization) [30] of the same substance?
**A.** > 50 µg/mL

**Q.** What about the IC50 (TZM-bl neutralization) [31] of the same substance?
**A.** > 50 µg/mL

**Q.** And the IC80 (TZM-bl neutralization) [32]?
**A.** > 50 µg/mL

**Q.** And the IC50 (TZM-bl neutralization) [33]?
**A.** > 50 µg/mL

**Q.** What about the IC50 (TZM-bl neutralization) [34] of the same substance?
**A.** 0.26 µg/mL

**Q.** What about the IC80 (TZM-bl neutralization) [35] of the same substance?
**A.** > 50 µg/mL

**Q.** What about the IC80 (TZM-bl neutralization) [36] of the same substance?
**A.** > 50 µg/mL

**Q.** And the IC80 (TZM-bl neutralization) [37]?
**A.** 0.952 µg/mL

**Q.** And the IC50 (TZM-bl neutralization) [38]?
**A.** 0.008 µg/mL

**Q.** And the IC50 (TZM-bl neutralization) [39]?
**A.** > 50 µg/mL

**Q.** And the IC50 (TZM-bl neutralization assay) [40]?
**A.** 0.395 µg/mL

**Q.** What about the IC80 (TZM-bl neutralization assay) [40] of the same substance?
**A.** 1.4 µg/mL

**Q.** What about the IC80 (TZM-bl neutralization) [41] of the same substance?
**A.** > 50 µg/mL

**Q.** What about the IC50 (TZM-bl neutralization) [42] of the same substance?
**A.** > 50 µg/mL

**Q.** What about the IC50 (TZM-bl neutralization) [43] of the same substance?
**A.** 10.9 µg/mL

**Q.** What about the IC50 (TZM-bl neutralization) [44] of the same substance?
**A.** 0.144 µg/mL

**Q.** And the IC80 (TZM-bl neutralization) [45]?
**A.** 7.4 µg/mL

**Q.** What about the IC50 (TZM-bl neutralization) [46] of the same substance?
**A.** > 50 µg/mL

**Q.** What about the IC50 (TZM-bl neutralization) [47] of the same substance?
**A.** > 50 µg/mL

**Q.** What about the IC50 (TZM-bl neutralization) [48] of the same substance?
**A.** > 50 µg/mL

**Q.** And the IC50 (TZM-bl neutralization) [49]?
**A.** 0.256 µg/mL

**Q.** What about the IC50 (TZM-bl neutralization) [50] of the same substance?
**A.** > 50 µg/mL
